Consider six molecules from patent US20170029484A1 (published 2017).

Assay [1] concerns the target T1, desmuslin/synemin peptide on HLA-A*02:01 (human).
T1 peptide: RTF[pS]PTYGL
In words: cytokine release.

In assay [2] the target is T2, β-catenin peptide on HLA-A*02:01 (human).
T2 peptide: YLD[pS]GIHSGA
In words: cytokine release.

The target of assay [3] is T3, insulin receptor substrate 2 (IRS-2) peptide on HLA-A*02:01 (human).
T3 peptide: RVA[pS]PTSGV
Put plainly: killing.

Assay [4] concerns the target T2, β-catenin peptide on HLA-A*02:01. Put plainly: killing.
Assay [5] concerns the target T3, insulin receptor substrate 2 (IRS-2) …. Put plainly: cytokine release.
Assay [6] deals with T4, CDC25b (M-phase inducer phosphatase 2) peptide on HLA-A*02:01 (human).
T4 peptide: GLLG[pS]PVRA
Put plainly: killing.

Where no end group is shown, it is not given here. [ ]: non-standard residue; d: D form. pS = N[C@@H](COP(=O)(O)O)C(=O)O

B1: DESA (TCR, V domains shown)
Valpha: AQSVTQPDARATVSEGASLRLRCKYSYSGTPYLFWYVQYPRQGLQLLLKYYSGDPVVQGVNGFEAEFSKSNSSFHLRKASVHWSDSAVYFCVLSYSNNRIFFGDGTQLVMKP
Vbeta: DSGVVQSPRHIIKEKGGRSVLTCIPISGHSNVVWYQQTLGKELKFLIQHYEKVERDKGFLPSRFSVQQFDDYHSEMNMSALELEDSAMYFCASSLGGGEVFFGKGTRLTVV
In the case of B1, the binding result in assay [1] is “recognises”.

B2: βCATA (TCR, V domains shown)
Valpha: GQQVQQSPASLVLQEGENAELQCNFSSTATRLQWFYQHPGGRLVSLFYNPSGTKHTGRLTSTTVTNERRSSLHISSSQTTDSGTYFCAIPPGTGSKLSFGKGAKLTVSP
Vbeta: NTKITQSPRYLILGRANKSLECEQHLGHNAMYWYKQSAEKPPELMFLYNLKQLIRNETVPSRFIPECPDSSKLLLHISAVDPEDSAVYFCASSQGQKQYFGPGTRLTVL
For B2, the binding result in assay [2] is given as “recognises”.

B3: the CDC25b TCR (TCR, V domains shown)
Valpha: GEQVEQRPPHLSVREGDSAVIICTYTDPNSYYFFWYKQEPGAGLQLLMKVFSSTEINEGQGFTVLLNKKDQQLSLNLTAAHPGDSAVYFCAVKPGGYKVVFGSGTRLLVSP
Vbeta: EAAVTQSPRNKVAVTGGKVTLSCNQTNNHNNMYWYRQDTGHGLRLIHYSYGAGSTEKGDIPDGYKASRPSQENFSLILELATPSQTSVYFCASGGDTQYFGPGTRLLVL
On to B3, for which the binding result in assay [3] and in assay [4] was “no recognition” throughout.

B4: IRS-2B (TCR, V domains shown)
Valpha: AQSVTQPDARVTVSEGASLQLRCKYSYSGTPYLFWYVQYPRQGLQLLLKYYSGDPVVQGVNGFEAEFIKSNSSFHLRKASVHWSDSAVYFCAVSAGSGGKLTLGAGTRLQVNL
Vbeta: EAAVTQSPRSKVAVTGGKVTLSCHQANNHDYMYWYRQDTGHGLRLIHYSYVADSTEKGDIPDGYKASRPSQENFSLILELASLSQTAVYFCASSDRDNYAEQFFGPGTRLTVL
For the molecule B4, the binding result in assay [5] is given as “recognises”.

B5: IRS-2A (TCR, V domains shown)
Valpha: AQSVTQPDARVTVSEGASLQLRCKYSYSGTPYLFWYVQYPRQGLQLLLKYYSGDPVVQGVNGFEAEFIKSNSSFHLRKASVHWSDSAVYFCAVSEGADRLTFGKGTQLIIQP
Vbeta: EAGVTQSPRYAVLQEGQAVSFWCDPISGHDTLYWYQQPRDQGPQLLVYFRDEAVIDNSQLPSDRFSAVRPKGTNSTLKIQSAKQGDTATYLCASSLLDSSYEQYFGPGTRLTVL
For the molecule B5, in assay [6], the binding result was “no recognition”.

B6: DESB (TCR, V domains shown)
Valpha: AQSVTQPDARVTVSEGASLQLRCKYSYSGTPYLFWYAQYPRQGLQLLLKYYSGDPVVQGVNGFEAEFSKSNSSFHLRKASVHWSDSAVYFCVLRYGGNNKLTFGQGTVLSVIP
Vbeta: EAAVTQSPRSKVAVTGGKVTLSCHQTNNHDYMYWYRQDTGHGLRLIHYSYVADSTEKGDIPDGYKASRPSQENFSLILELASLSQTAVYFCASRYRDTQYFGPGTRLLVL
As to B6, the binding result in assay [1] was “recognises”.
